Test results: the supplement of paper PMC10567573

B1: TRIM55 (parent)
chain: FQASNPYLPTRGGTTMASGGRFRC
B2: LPCAT4 (parent)
chain: HDPLYGKLFSTYLRPPHTSRGTSQ

Variants of: B1
Assay: protein stability index of a GFP-peptide fusion (GPS, HEK-293T) (PSI 1-6); higher = more stable
Settings: c terminus: a fixed tail appended
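Further: lentivirally expressed fusions sorted by FACS into six bins by GFP to DsRed ratio, PSI derived from sequencing read proportions per bin multiplied by bin number.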

Protein stability index, by site and new letter:
P6: W 1.93, I 1.85, D 2.07, V 3.02, K 3.13, G 2.06, Y 2.42, S 1.65, H 2.37, E 2.26, L 2.65, T 1.93, Q 2.48, A 1.96, N 2.72, C 3.1, F 2.12
P9: V 2.2, S 1.7, C 2.04, D 2.24, W 2.09, H 1.86, M 1.83, T 1.73, I 1.89, K 2.09, Y 1.88, G 1.63, L 2.65, E 2.17, Q 1.72, N 1.85, R 2.1, F 1.5, A 1.14
R11: S 2.02, G 2.02, Y 2.28, P 2.13, Q 1.8, M 2.11, N 1.86, A 2.05, L 2.15, C 2.76, H 1.57, F 2.01, V 1.89, T 1.65, I 2.46, E 2.29, W 2.68, D 2
Y7: F 2.43, D 3.76, I 2.83, K 2.91, N 3.4, V 3.13, Q 3.45, R 3.25, G 3.29, E 3.2, A 3.52, P 3.54, T 3.27, C 3.15, L 1.9, M 2.68, H 3.36, S 3.18
A3: C 1.32, R 2.46, S 2.27, Q 2.84, G 1.95, T 1.54, N 2.18, L 1.8, I 1.76, P 2.02, V 2.28, H 1.24, D 2.71, K 1.69, M 1.83, F 2.69, E 2.55, W 2.95, Y 1.95
F1: R 3.57, T 3.49, G 3.91, C 2.2, H 3.24, D 3.43, E 3.59, V 3.16, L 3.37, I 3.13, W 2.58, P 3.91, S 3.52, Y 2.06, K 3.41, M 3.4, Q 3.91, N 3.55, A 3.51
G13: E 1.46, I 1.99, C 1.65, R 1.7, P 1.7, K 2.74, Q 2.68, M 2.65, V 1.9, F 1.22, N 1.22, W 3.33, H 2.32, Y 1.51, L 3.49, S 1.75, D 1.64, A 1.68, T 1.65
Q2: N 2.68, P 1.61, D 3.43, T 1.68, W 2.3, Y 2.2, S 2.13, L 1.94, E 3.38, A 2.17, I 2.22, C 1.44, K 2.85, H 2.99, M 2, R 2.68, V 1.74, F 2.03, G 1.9
G12: P 1.55, D 2.06, L 2.67, N 1.62, A 1.63, R 2.79, T 2.13, Y 1.81, W 2.35, S 2.61, I 2.77, Q 1.34, E 1.55, F 2.86, H 2.04, M 1.05, V 3.34, C 2.23
L8: D 2.55, H 1.56, V 2.03, K 1.14, F 1.63, A 1.81, G 2.02, P 1.92, S 2.7, E 3.39, R 2.54, I 2.79, N 2, T 2.79, Y 1.59, Q 2.22, C 3.09, M 1.26
S4: C 2.64, A 2.11, P 1.8, L 1.66, G 1.1, Y 2.12, F 2.57, Q 1.86, M 2.09, E 1.95, V 2.34, R 1.44, I 1.88, N 1.72, D 1.24, K 1.85, T 2.81
T10: M 3.72, K 1.74, P 2.37, Q 1.93, D 1.61, Y 1.83, W 2.81, G 2.03, F 2.19, C 2.17, E 2.99, R 1.56, L 2.4, I 1.81, V 2.16, A 2.06, S 1.97, H 2.17, N 2.23
N5: S 3.55, A 2.65, V 2.1, K 1.78, P 2.22, F 3.23, D 2.81, L 2.04, W 2.49, H 3.58, T 2, G 1.41, R 1.7, Q 2.33, E 2.58, Y 2.14, I 2.51, C 2.6

Variants of: B2
Assay: as above
Settings: c terminus: a fixed tail appended

Protein stability index: each site, then its substitutions
R20: G 2.83, T 2.67, D 2.67, P 2.66, K 2.8, Q 2.85, W 2.2, V 2.29, M 2.08, F 2.17, N 2.56, C 2.36, A 2.78, I 2.43, S 2.58, L 2.19, E 3.53, H 2.86, Y 2.3
G21: A 2.95, I 2.41, C 2.51, M 2.67, V 2.82, T 2.49, R 2.42, F 2.46, Q 2.95, D 3.4, K 2.55, L 2.48, S 2.67, P 2.56, E 2.69, Y 1.87, W 2, N 2.42, H 2.11
S23: M 2.34, I 2.3, D 3.17, K 2.51, E 2.64, V 2.49, C 2.61, T 2.66, W 2.4, L 2.39, F 2.09, N 2.77, Q 2.52, P 2.87, R 2.45, A 3, Y 2.19, G 2.18, H 2.73
S19: Y 2.38
Q24: N 2.78, A 2.28, D 3.28, V 2.42, C 2.64, R 2.39, H 2.3, G 2.36, S 2.72, K 2.56, I 2.11, P 2.43, F 2.28, T 2.53, M 2.45, Y 2.07, L 2.29, E 3.01, W 2.13
T22: V 2.12, S 2.74, Y 2.13, R 2.48, G 2.75, I 2.22, F 2.42, L 2.81, H 2.81, M 2.72, D 2.6, K 2.61, C 2.43, W 1.98, A 2.66, E 3.04, Q 2.32, P 2.59, N 2.8
